Measurements reported in US20260235593A1, “FRET BIOSENSOR RECOMBINANT PROTEINS” (The Regents of the University of California, priority 2023, published 2026).

What was measured:
Format in all cases: cell-based
ERK = assay: Multiplexed biosensor imaging in HEK293T cells: ERK activity (yellow/far-red HaloTag-EKAR); conditions: HEK293T cells co-expressing yellow/far-red HaloTag-EKAR and red/far-red HaloTag-AKAR; 100 ng/mL hEGF
Method: (§1) Cell culture and transfection HeLa and HEK293T cells were cultured in Dulbecco's modified Eagle medium (DMEM; Gibco) containing glucose (1 g/L) and supplemented with 10% (v/v) fetal bovine serum (Sigma-Aldrich) and 1% (v/v) penicillin-streptomycin (Pen-Strep; Sigma-Aldrich). NIH3T3 cells were cultured in DMEM (Gibco) containing glucose (1 g/L) and supplemented with 10% (v/v) fetal calf serum and 1% (v/v) Pen-Strep (Sigma-Aldrich). All cells were maintained in a humidified incubator at 37° C. with a 5% CO2 atmosphere. Before transfection, cells were plated onto sterile quartered 35-mm glass-bottomed dishes and grown to 50 to 70% confluence. Cells were then transfected using Lipofectamine 2000 (Invitrogen, HeLa) or PolyJet (SignaGen Laboratories, HEK293T and NIH3T3) and grown an additional 48 hours (HeLa, HEK293T) before imaging. NIH3T3 cells were changed to serum-free DMEM immediately before transfection, medium was changed to complete medium after 6 h. NIH3T3 cells were then serum-starved for 24 hours before imaging. HaloTag labeling was performed 24 h before imaging using synthetic fluorophores (Fluorophore-CA 500 nM, 24 h, 37° C.) in the respective medium. Synthetic fluorophores were kindly provided by Luke Lavis (Janelia Research Campus, JF669-CA, JFX646-CA and JF635) or Kai Johnsson (Max Planck Institute for Medical Research (Germany) and EPFL (Switzerland), NGD-CA). […]

PKA [1] = molecular target: T1, PKA (Homo sapiens, UniProt P17612); assay: Multiplexed biosensor imaging in HEK293T cells: PKA activity (red/far-red HaloTag-AKAR); conditions: HEK293T cells co-expressing yellow/far-red HaloTag-EKAR and red/far-red HaloTag-AKAR; 100 ng/mL hEGF; Fsk and 100 μM IBMX together; M H89
T1 construct: endogenous in cells; host or cells: HEK293T; only the biosensors are transfected
Method: as §1

PKA [2] = assay: HaloTag-based FluoSTEP-AKAR co-expressed with FP11-Actin in HeLa cells, Fsk/IBMX stimulation
Excerpt: Recently, anew biosensor design was developed using self-complementing split green FP (GFP) as the FRET donor. The self-complementation allowed the biosensors to be recruited and reconstituted at proteins of interest (POI) endogenously tagged with the FPs eleventh-strand (FP11). This allowed researchers to monitor compartmentalized signaling within endogenous microdomains without overexpressing the POI^[11]. However, this concept, fluorescent biosensors targeted to endogenous proteins (FluoSTEPs), suffers from two major limitations: low dynamic range and low brightness^[11]. Given the promising dynamic range achieved using HaloTag^(JF669) as a FRET acceptor in KARs, we decided to introduce HaloTag into FluoSTEP-AKAR. We replaced mRuby2 in FluoSTEP-AKAR with HaloTag and additionally introduced the EV linker to further increase the dynamic range. In order to address the limitation of low brightness of sfGFP as a FRET donor, we tested the use of two different split mNeonGreen (mNG) versions: split mNeonGreen2 (mNG2)^[22] and split mNeonGreen3A (mNG3A)[^21] in parallel (FIG. 8A). We co-expressed the generated biosensors with FP11-Actin in HeLa cells and used Fsk and IBMX to stimulate the reporters to monitor PKA signal. […] Consistent with previous results biosensors with HaloTag at the C-terminus performed best. […]

PKA [3] = assay: FluoSTEP-AKAR in HeLa cells endogenously expressing mNG11 (knock-in), Fsk/IBMX treatment; conditions: HeLa-mNG11-β-Actin, HeLa-mNG11-clathrin and HeLa-mNG11-ezrin cells; 50 M Fsk and 100 μM IBMX
Method: Using our enhanced HaloTag-based FluoSTEPs mNG3A(1-10)-FHA1-xx aa EV linker-PKA substrate-HaloTag^(JF669) (xx=220 and 116 aa) we measured PKA activation upon treatment with 50 M Fsk and 100 μM IBMX in HeLa cells endogenously expressing mNG11 at different locations (CRISPER-mediated knock-in).

Row | Molecule | ERK activity (ERK) | PKA activity (PKA [1]) | increase when stimulated (dynamic range) (PKA [2]; HeLa cells co-expressing FP11-Actin, Fsk and IBMX, HaloTag labeled with JF669, mean±SEM) | dynamic range relative to the conventional FluoSTEP (PKA [2]; same experimental conditions, conventional FluoSTEP-AKAR of reference [11]) | response (PKA activation) compared between EV linker lengths (PKA [3])
1 | hEGF: human epidermal growth factor (protein, UniProt P01133 23-1207, looked up, Pro-epidermal growth factor) Pro-epidermal growth factor: PQHWSCPEGTLAGNGNSTCVGPAPFLIFSHGNSIFRIDTEGTNYEQLVVDAGVSVIMDFHYNEKRIYWVDLERQLLQRVFLNGSRQERVCNIEKNVSGMAINWINEEVIWSNQQEGIITVTDMKGNNSHILLSALKYPANVAVDPVERFIFWSSEVAGSLYRADLDGVGVKALLETSEKITAVSLDVLDKRLFWIQYNREGSNSLICSCDYDGGSVHISKHPTQHNLFAMSLFGDRIFYSTWKMKTIWIANKHTGKDMVRINLHSSFVPLGELKVVHPLAQPKAEDDTWEPEQKLCKLRKGNCSSTVCGQDLQSHLCMCAEGYALSRDRKYCEDVNECAFWNHGCTLGCKNTPGSYYCTCPVGFVLLPDGKRCHQLVSCPRNVSECSHDCVLTSEGPLCFCPEGSVLERDGKTCSGCSSPDNGGCSQLCVPLSPVSWECDCFPGYDLQLDEKSCAASGPQPFLLFANSQDIRHMHFDGTDYGTLLSQQMGMVYALDHDPVENKIYFAHTALKWIERANMDGSQRERLIEEGVDVPEGLAVDWIGRRFYWTDRGKSLIGRSDLNGKRSKIITKENISQPRGIAVHPMAKRLFWTDTGINPRIESSSLQGLGRLVIASSDLIWPSGITIDFLTDKLYWCDAKQSVIEMANLDGSKRRRLTQNDVGHPFAVAVFEDYVWFSDWAMPSVMRVNKRTGKDRVRLQGSMLKPSSLVVVHPLAKPGADPCLYQNGGCEHICKKRLGTAWCSCREGFMKASDGKTCLALDGHQLLAGGEVDLKNQVTPLDILSKTRVSEDNITESQHMLVAEIMVSDQDDCAPVGCSMYARCISEGEDATCQCLKGFAGDGKLCSDIDECEMGVPVCPPASSKCINTEGGYVCRCSEGYQGDGIHCLDIDECQLGEHSCGENASCTNTEGGYTCMCAGRLSEPGLICPDSTPPPHLREDDHHYSVRNSDSECPLSHDGYCLHDGVCMYIEALDKYACNCVVGYIGERCQYRDLKWWELRHAGHGQQQKVIVVAVCVVVLVMLLLLSLWGAHYYRTQKLLSKNPKNPYEESSRDVRSRRPADTEDGMSSCPQPWFVVIKEHQDLKNGGQPVAGEDGQAADGSMQPTSWRQEPQLCGMGTEQGCWIPVSSDKGSCPQVMERSFHMPSYGTQTLEGGVEKPHSLLSANPLWQQRALDPPHQMELTQ | increase in both ERK and PKA activity | increase in both ERK and PKA activity | – | – | –
2 | mNG3A(1-10)-FHA1-EV linker-PKA substrate-HaloTag^(JF669): enhanced FluoSTEP-AKAR: split mNG3A donor, HaloTag^(JF669) acceptor, 116 aa EV linker (protein) MVSKGEEDNMASLPATHELHIFGSINGVDFDMVGQGTGNPNDGYEELNLKSTKGDLQFSPWILVPHIGYGFHQYLPYPDGMSPFQAAMVDGSGYQVHRTMQFEDGASLTVNYRYTYEGSHIKGEAQVMGTGFPADGPVMTNTLTAADLCVSKMTYPNDKTIISTFKWSYTTVNGKRYRSTARTTYTFAKPMAAKYLKNQPMYVLRKTELKHSMWTFGRNPACDYHLGNISRLSNKHFQILLGEDGNLLLNDISTNGTWLNGQKVSAGGSAGGSAGGSAGGSAGGSGSAGGSAGGSTSAGGSAGGSAGGSAGGSAGGSGSAGGSAGGSTSAGGSAGGSAGGSAGGSAGGSGSAGGSAGGSTSAGGSAGGSAGGSAGGSAGGLRRATLVDGGTGGSELMGSEIGTGFPFDPHYVEVLGERMHYVDVGPRDGTPVLFLHGNPTSSYVWRNIIPHVAPTHRCIAPDLIGMGKSDKPDLGYFFDDHVRFMDAFIEALGLEEVVLVIHDWGSALGFHWAKRNPERVKGIAFMEFIRPIPTWDEWPEFARETFQAFRTTDVGRKLIIDQNVFIEGTLPMGVVRPLTEVEMDHYREPFLNPVDREPLWRFPNELPIAGEPANIVALVEEYMDWLHQSPVPKLLFWGTPGVLIPPAEAARLAKSLPNCKAVDIGPGLNLLQEDNPDLIGSEIARWLSTLEISG | – | – | 71.1%±3.1% | about 8 times | diminished response compared to the sensor with the 220 aa EV linker
